Assay results taken from patent publication US20200079833A1 (AstraZeneca / MedImmune, published 2020).
Starred links: 1 amine or outer side, 2 acyl side, 3 side chain; linkers in the order of their positions; H or OH if unused. Non-standard residues stand in square brackets, D forms with d. Groups on a side chain read outwards from the residue. Primed or numbered codes have the meaning given here. No end group written: not given here. *: point of attachment. γGlu = O=C(O)[C@H](CCC(=O)[*:2])N[*:1]; Stearoyl = CCCCCCCCCCCCCCCCCC(=O)*; Palmitoyl = CCCCCCCCCCCCCCCC(=O)*; αMeF = C[C@](N)(Cc1ccccc1)C(=O)O; αMeK = C[C@](N)(CCCCN)C(=O)O; αMeS = C[C@](N)(CO)C(=O)O; PEG2′ = not defined here; Aib = CC(C)(N)C(=O)O

T1: GLP-1R (INS1e assay) (UniProt P32301 22-463, limits assumed)
T1 sequence (looked up): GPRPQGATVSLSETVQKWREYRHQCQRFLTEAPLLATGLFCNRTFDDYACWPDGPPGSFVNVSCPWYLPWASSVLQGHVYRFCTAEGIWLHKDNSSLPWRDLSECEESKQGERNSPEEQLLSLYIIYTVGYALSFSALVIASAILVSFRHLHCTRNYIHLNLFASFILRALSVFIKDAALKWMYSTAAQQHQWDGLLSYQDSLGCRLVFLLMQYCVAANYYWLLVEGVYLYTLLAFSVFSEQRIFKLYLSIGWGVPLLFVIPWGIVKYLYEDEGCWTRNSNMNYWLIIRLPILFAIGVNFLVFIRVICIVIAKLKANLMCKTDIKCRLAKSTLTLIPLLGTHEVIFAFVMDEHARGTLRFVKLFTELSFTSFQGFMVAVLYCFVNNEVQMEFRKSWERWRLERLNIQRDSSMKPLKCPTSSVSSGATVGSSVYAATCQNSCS

B1: SEQ ID NO 75 (peptide)
peptide: H[Aib]EGS[αMeF]TSDV[αMeS]S[αMeF]LEGEAA[αMeK]E[αMeF]IAK([γGlu-Palmitoyl])VV[αMeK]GG-NH2
modifications: N-terminus assumed
SMILES: CCCCCCCCCCCCCCCC(=O)N[C@@H](CCC(=O)NCCCC[C@H](NC(=O)[C@H](C)NC(=O)[C@@H](NC(=O)[C@](C)(Cc1ccccc1)NC(=O)[C@H](CCC(=O)O)NC(=O)[C@](C)(CCCCN)NC(=O)[C@H](C)NC(=O)[C@H](C)NC(=O)[C@H](CCC(=O)O)NC(=O)CNC(=O)[C@H](CCC(=O)O)NC(=O)[C@H](CC(C)C)NC(=O)[C@](C)(Cc1ccccc1)NC(=O)[C@H](CO)NC(=O)[C@](C)(CO)NC(=O)[C@@H](NC(=O)[C@H](CC(=O)O)NC(=O)[C@H](CO)NC(=O)[C@@H](NC(=O)[C@](C)(Cc1ccccc1)NC(=O)[C@H](CO)NC(=O)CNC(=O)[C@H](CCC(=O)O)NC(=O)C(C)(C)NC(=O)[C@@H](N)Cc1c[nH]cn1)[C@@H](C)O)C(C)C)[C@@H](C)CC)C(=O)N[C@H](C(=O)N[C@H](C(=O)N[C@@](C)(CCCCN)C(=O)NCC(=O)NCC(N)=O)C(C)C)C(C)C)C(=O)O
B2: SEQ ID NO 71 (peptide)
peptide: H[Aib]EGS[αMeF]TSDV[αMeS]S[αMeF]LEGEAA[αMeK]E[αMeF]IA[αMeF]VV[αMeK]K([γGlu-Palmitoyl])G-NH2
modifications: N-terminus assumed
SMILES: CCCCCCCCCCCCCCCC(=O)N[C@@H](CCC(=O)NCCCC[C@H](NC(=O)[C@](C)(CCCCN)NC(=O)[C@@H](NC(=O)[C@@H](NC(=O)[C@](C)(Cc1ccccc1)NC(=O)[C@H](C)NC(=O)[C@@H](NC(=O)[C@](C)(Cc1ccccc1)NC(=O)[C@H](CCC(=O)O)NC(=O)[C@](C)(CCCCN)NC(=O)[C@H](C)NC(=O)[C@H](C)NC(=O)[C@H](CCC(=O)O)NC(=O)CNC(=O)[C@H](CCC(=O)O)NC(=O)[C@H](CC(C)C)NC(=O)[C@](C)(Cc1ccccc1)NC(=O)[C@H](CO)NC(=O)[C@](C)(CO)NC(=O)[C@@H](NC(=O)[C@H](CC(=O)O)NC(=O)[C@H](CO)NC(=O)[C@@H](NC(=O)[C@](C)(Cc1ccccc1)NC(=O)[C@H](CO)NC(=O)CNC(=O)[C@H](CCC(=O)O)NC(=O)C(C)(C)NC(=O)[C@@H](N)Cc1c[nH]cn1)[C@@H](C)O)C(C)C)[C@@H](C)CC)C(C)C)C(C)C)C(=O)NCC(N)=O)C(=O)O
B3: SEQ ID NO 76 (peptide)
peptide: H[Aib]EGS[αMeF]TSDV[αMeS]S[αMeF]LEGEAA[αMeK]E[αMeF]IK([γGlu-Palmitoyl])[αMeF]VV[αMeK]GG-NH2
modifications: N-terminus assumed
SMILES: CCCCCCCCCCCCCCCC(=O)N[C@@H](CCC(=O)NCCCC[C@H](NC(=O)[C@@H](NC(=O)[C@](C)(Cc1ccccc1)NC(=O)[C@H](CCC(=O)O)NC(=O)[C@](C)(CCCCN)NC(=O)[C@H](C)NC(=O)[C@H](C)NC(=O)[C@H](CCC(=O)O)NC(=O)CNC(=O)[C@H](CCC(=O)O)NC(=O)[C@H](CC(C)C)NC(=O)[C@](C)(Cc1ccccc1)NC(=O)[C@H](CO)NC(=O)[C@](C)(CO)NC(=O)[C@@H](NC(=O)[C@H](CC(=O)O)NC(=O)[C@H](CO)NC(=O)[C@@H](NC(=O)[C@](C)(Cc1ccccc1)NC(=O)[C@H](CO)NC(=O)CNC(=O)[C@H](CCC(=O)O)NC(=O)C(C)(C)NC(=O)[C@@H](N)Cc1c[nH]cn1)[C@@H](C)O)C(C)C)[C@@H](C)CC)C(=O)N[C@@](C)(Cc1ccccc1)C(=O)N[C@H](C(=O)N[C@H](C(=O)N[C@@](C)(CCCCN)C(=O)NCC(=O)NCC(N)=O)C(C)C)C(C)C)C(=O)O
B4: SEQ ID NO 74 (peptide)
peptide: H[Aib]EGS[αMeF]TSDV[αMeS]S[αMeF]LEGEAA[αMeK]E[αMeF]IA[αMeF]K([γGlu-Palmitoyl])V[αMeK]GG-NH2
modifications: N-terminus assumed
SMILES: CCCCCCCCCCCCCCCC(=O)N[C@@H](CCC(=O)NCCCC[C@H](NC(=O)[C@](C)(Cc1ccccc1)NC(=O)[C@H](C)NC(=O)[C@@H](NC(=O)[C@](C)(Cc1ccccc1)NC(=O)[C@H](CCC(=O)O)NC(=O)[C@](C)(CCCCN)NC(=O)[C@H](C)NC(=O)[C@H](C)NC(=O)[C@H](CCC(=O)O)NC(=O)CNC(=O)[C@H](CCC(=O)O)NC(=O)[C@H](CC(C)C)NC(=O)[C@](C)(Cc1ccccc1)NC(=O)[C@H](CO)NC(=O)[C@](C)(CO)NC(=O)[C@@H](NC(=O)[C@H](CC(=O)O)NC(=O)[C@H](CO)NC(=O)[C@@H](NC(=O)[C@](C)(Cc1ccccc1)NC(=O)[C@H](CO)NC(=O)CNC(=O)[C@H](CCC(=O)O)NC(=O)C(C)(C)NC(=O)[C@@H](N)Cc1c[nH]cn1)[C@@H](C)O)C(C)C)[C@@H](C)CC)C(=O)N[C@H](C(=O)N[C@@](C)(CCCCN)C(=O)NCC(=O)NCC(N)=O)C(C)C)C(=O)O
B5: SEQ ID NO 72 (peptide)
peptide: H[Aib]EGS[αMeF]TSDV[αMeS]S[αMeF]LEGEAA[αMeK]E[αMeF]IA[αMeF]VVK([γGlu-Palmitoyl])GG-NH2
modifications: N-terminus assumed
SMILES: CCCCCCCCCCCCCCCC(=O)N[C@@H](CCC(=O)NCCCC[C@H](NC(=O)[C@@H](NC(=O)[C@@H](NC(=O)[C@](C)(Cc1ccccc1)NC(=O)[C@H](C)NC(=O)[C@@H](NC(=O)[C@](C)(Cc1ccccc1)NC(=O)[C@H](CCC(=O)O)NC(=O)[C@](C)(CCCCN)NC(=O)[C@H](C)NC(=O)[C@H](C)NC(=O)[C@H](CCC(=O)O)NC(=O)CNC(=O)[C@H](CCC(=O)O)NC(=O)[C@H](CC(C)C)NC(=O)[C@](C)(Cc1ccccc1)NC(=O)[C@H](CO)NC(=O)[C@](C)(CO)NC(=O)[C@@H](NC(=O)[C@H](CC(=O)O)NC(=O)[C@H](CO)NC(=O)[C@@H](NC(=O)[C@](C)(Cc1ccccc1)NC(=O)[C@H](CO)NC(=O)CNC(=O)[C@H](CCC(=O)O)NC(=O)C(C)(C)NC(=O)[C@@H](N)Cc1c[nH]cn1)[C@@H](C)O)C(C)C)[C@@H](C)CC)C(C)C)C(C)C)C(=O)NCC(=O)NCC(N)=O)C(=O)O

The binders below were run against T1, GLP-1R (INS1e assay) (assay: cell-based or functional assay).

INS1e assay EC50 GLP-1 R n1 | INS1e assay EC50 GLP-1 R n2 | INS1e assay EC50 Mean pM GLP-1R | Binder
0.209 nM | 0.0837 nM | 146 pM | H[Aib]EGS[αMeF]TSDVSK([PEG2′-PEG2′-PEG2′-Stearoyl])YLEGEAAEE[αMeF]IA[αMeF]VVEGG-NH2 [SEQ ID NO 62]
0.0497 nM | 0.063 nM | 56 pM | B1
6.15 nM | 18.1 nM | 12100 pM | H[Aib]EGS[αMeF]TSDV[αMeS]S[αMeF]LEGEAA[Aib]EFIK([PEG2′-PEG2′-γGlu-Stearoyl])WVVEGG-NH2 [SEQ ID NO 67]
0.0231 nM | 0.0392 nM | 31 pM | H[Aib]EGS[αMeF]TSDVSK([PEG2′-PEG2′-PEG2′-Stearoyl])YLEGEAA[Aib]E[αMeF]IA[αMeF]VVEGG-NH2 [SEQ ID NO 63]
0.604 nM | 0.841 nM | 723 pM | B2
2.57 nM | 3.74 nM | 3160 pM | H[Aib]EGS[αMeF]TSDV[αMeS]S[αMeF]LEGEAAKEFIK([PEG2′-PEG2′-γGlu-Stearoyl])WVVEGG-NH2 [SEQ ID NO 65]
0.326 nM | 0.531 nM | 429 pM | B3
45.6 nM | 38.8 nM | 42200 pM | H[Aib]EGS[αMeF]TSDV[αMeS]S[αMeF]LEGEAAEEFIK([PEG2′-PEG2′-γGlu-Stearoyl])WVVEGG-NH2 [SEQ ID NO 66]
0.0068 nM | 0.0121 nM | 9 pM | H[Aib]EGS[αMeF]TSDVSK([PEG2′-PEG2′-PEG2′-Stearoyl])YLEGEAA[αMeK]E[αMeF]IA[αMeF]VVEGG-NH2 [SEQ ID NO 64]
19.2 nM | 25 nM | 22100 pM | H[Aib]EGS[αMeF]TSDV[αMeS]S[αMeF]LEGEAAAEFIK([PEG2′-PEG2′-γGlu-Stearoyl])WVVEGG-NH2 [SEQ ID NO 69]
0.0774 nM | 0.127 nM | 102 pM | B4
4.26 nM | 8.07 nM | 6160 pM | B5
2.69 nM | 4.87 nM | 3780 pM | H[Aib]EGS[αMeF]TSDV[αMeS]S[αMeF]LEGEAA[αMeK]EFIK([PEG2′-PEG2′-γGlu-Stearoyl])WVVEGG-NH2 [SEQ ID NO 68]
14.3 nM | 12.1 nM | 13200 pM | H[Aib]EGS[αMeF]TSDVSK([PEG2′-PEG2′-γGlu-Stearoyl])YLEGEAA[αMeK]E[αMeF]IA[αMeF]VVEGG-NH2 [SEQ ID NO 60]
0.00557 nM | 0.0135 nM | 10 pM | H[Aib]EGS[αMeF]TSDVSK([PEG2′-PEG2′-PEG2′-Stearoyl])YLEGEAAKE[αMeF]IA[αMeF]VVEGG-NH2 [SEQ ID NO 61]
